{
  "source": "patent US20080242601A1",
  "about": "(INSTITUTE PASTEUR, published 2008)",
  "molecules": {"B1": {"name": "CC2 (WT) (peptide)", "peptide": "Ac-SKGMQLEDLRQQLQQAEEALVAKQELIDKLKEEAEQHKIV-NH2", "notes": "Synthetic peptide; Forms a trimer by gel filtration at 10 uM; also called CC2 peptide; CC2 wild type"}},
  "key": {"[1]": {"target": "T1, NEMO (NF-kB essential modulator), murine (murine, UniProt O88522 1-412)", "T1 chain": "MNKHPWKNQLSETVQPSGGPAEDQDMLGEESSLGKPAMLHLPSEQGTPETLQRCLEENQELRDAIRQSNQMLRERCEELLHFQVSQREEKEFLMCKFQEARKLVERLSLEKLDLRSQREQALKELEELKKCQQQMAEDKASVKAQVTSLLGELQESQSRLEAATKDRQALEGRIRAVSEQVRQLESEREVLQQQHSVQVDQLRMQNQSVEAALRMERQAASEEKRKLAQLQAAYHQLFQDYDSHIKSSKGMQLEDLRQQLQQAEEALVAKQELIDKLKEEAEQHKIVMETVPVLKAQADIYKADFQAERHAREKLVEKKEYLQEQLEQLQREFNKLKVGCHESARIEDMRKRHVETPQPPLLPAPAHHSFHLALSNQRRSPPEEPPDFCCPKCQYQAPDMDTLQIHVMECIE", "experiment": "cell-based or functional assay"}, "[2]": {"target": "T1, NEMO (NF-kB essential modulator), murine", "experiment": "cell-based or functional assay"}, "[3]": {"target": "the molecule itself", "experiment": "gel filtration (Superdex 75) at 10 µM, self-association", "description": "The oligomeric states of peptides were determined by filtration as described in Traincard et al., 2003. In brief, 500 μl samples were loaded on a Superdex 75 HR 10/30 column equilibrated in 50 mM Tris-HCl pH 8.0 containing 200 mM NaCl and 0.1 mM DDM, at a constant flow rate of 0.4 ml/min. The presence of the DDM detergent was added in the equilibrium buffer to minimize the adsorption in the column and to increase the peptide recovery. The column was calibrated in the same equilibrium buffer with blue dextran 2000 (void volume), dithioerythritol (total volume), bovine serum albumin (67 kDa, Rs=35.2 Å), ovalbumine (43 kDa, Rs=27.5 Å), chymotrypsinogen A (25 kDa, Rs=21.1 Å), ribonuclease A (13.7 kDa, Rs=16.4 Å), cytochrome C (12.4 kDa, Rs=17.7 Å) and aprotinin (6.5 KDa, Rs=13.5 Å).\nThe antennapedia sequence is a protein transduction domain (PTD) which adopts an alpha-helical amphiphatic structure (Prochiantz, 2000, Curr. Opin. Cell Biol.). […] To examine the effect of N-fusion of the antennapedia peptide on the oligomerization properties of the CC2 and the LZ peptides, the present inventors analyzed peptides containing or not containing the antennapedia sequence at their N-terminus by gel filtration. […]"}, "[4]": {"target": "B1", "experiment": "fluorescence anisotropy, fixed BODIPY-Ant-LZ (0.1 µM) with CC2", "description": "(A) Direct titration of BODIPY-Ant-CC2 (1 μM) with CC2 by fluorescence anitropy. The concentration of CC2 was determined by amino acid analysis. Anisotropy values of BODIPY-Ant-CC2 in milliunits (mA) were plotted against an increasing concentration of the CC2 peptide. […] The two dashed lines represent a stoichiometric titration and intersect at an CC2 concentration of 16 μM. Given the 1 μM concentration of the BODIPY-Ant-CC2, this gives a complex stoechiometrie of 0.8. (B) Direct titration of BODIPY-Ant-LZ (0.1 μM with CC2 by fluorescence anitropy. The anisotropy values of the BODIPY-Ant-LZ alone (white bar) or in the presence of the CC2 peptide (30 μM, grey bar; 100 μM, black bar) are given in milliunits (mA).\nAnisotropy measurements were performed with a PTI Quantamaster fluorometer equipped with polarizers for the excitation and emission beams. This instrument uses a PMT in the L-configuration. […] Steady-state fluorescence anisotropy was expressed as millianisotropy (mA) and was calculated according to the equations: (1) A=(I_VV-GIVH)/(IVV+2GIVH); (2) G=IHV/IHH.; where A is anisotropy, G is a correction factor for wavelength-dependent distortion and I is the fluorescence intensity component (subscript referring to the vertical and horizontal positioning at the excitation and emission polarizers, respectively). […]"}, "[5]": {"target": "T1, NEMO (NF-kB essential modulator), murine", "experiment": "cell-based or functional assay"}},
  "note": "Like-named read-outs stand apart in the source and are kept apart here. * marks the point of attachment. BODIPYFLEthylmaleimide = Cc1cc(C)n2c1C=C1C=CC(CCC(=O)NCCN3C(=O)CC(*)C3=O)=[N+]1[B-]2(F)F",
  "data": [
    {"molecule": "BODIPY-Ant-CC2 (WT) (peptide)", "values": [
      {"measurement": "IC50 of inhibition of LPS-induced NF-κB activation (β-galactosidase reporter, 70Z3-C3 cells)", "setting": "[1]", "value": 22, "unit": "µM"},
      {"measurement": "fold reduction of LPS-induced NF-κB activation at 10 µM (stringent β-galactosidase assay)", "setting": "[1]", "value": 1.7, "unit": "fold"},
      {"measurement": "reduction of NF-κB activity at 20 µM after LPS stimulation of B lymphocytes", "setting": "[1]", "value": 70, "unit": "%"}
    ]},
    {"molecule": "Ac-C(BODIPYFLEthylmaleimide)RRRRRRRLKAQADIYKARFQAERHAREK-NH2 (SMILES CC[C@H](C)[C@H](NC(=O)[C@H](CC(=O)O)NC(=O)[C@H](C)NC(=O)[C@H](CCC(N)=O)NC(=O)[C@H](C)NC(=O)[C@H](CCCCN)NC(=O)[C@H](CC(C)C)NC(=O)[C@H](CCCNC(=N)N)NC(=O)[C@H](CCCNC(=N)N)NC(=O)[C@H](CCCNC(=N)N)NC(=O)[C@H](CCCNC(=N)N)NC(=O)[C@H](CCCNC(=N)N)NC(=O)[C@H](CCCNC(=N)N)NC(=O)[C@H](CCCNC(=N)N)NC(=O)[C@H](CSC1CC(=O)N(CCNC(=O)CCC2=[N+]3C(=Cc4c(C)cc(C)n4[B-]3(F)F)C=C2)C1=O)NC(C)=O)C(=O)N[C@@H](Cc1ccc(O)cc1)C(=O)N[C@@H](CCCCN)C(=O)N[C@@H](C)C(=O)N[C@@H](CCCNC(=N)N)C(=O)N[C@@H](Cc1ccccc1)C(=O)N[C@@H](CCC(N)=O)C(=O)N[C@@H](C)C(=O)N[C@@H](CCC(=O)O)C(=O)N[C@@H](CCCNC(=N)N)C(=O)N[C@@H](Cc1c[nH]cn1)C(=O)N[C@@H](C)C(=O)N[C@@H](CCCNC(=N)N)C(=O)N[C@@H](CCC(=O)O)C(=O)N[C@@H](CCCCN)C(N)=O)", "note": "[BODIPY-R7-NLM-DR]", "values": [
      {"measurement": "IC 50 (inhibition of NF-κB activation pathway)", "setting": "[2]", "value": 0.9, "unit": "µM"}
    ]},
    {"molecule": "Ac-C(BODIPYFLEthylmaleimide)RRRRRRRRRLKAQADIYKARFQAERHAREK-NH2 (not fully specified)", "note": "[BODIPY-R9-NLM-DR]", "values": [
      {"measurement": "IC 50 (inhibition of NF-κB activation pathway)", "setting": "[2]", "value": 0.9, "unit": "µM"}
    ]},
    {"molecule": "B1", "values": [
      {"measurement": "binding result", "setting": "[3]", "value": "binds"}
    ]},
    {"molecule": "BODIPY-Ant-LZ (WT) (Synthetic fusion peptide; also called cell permeable LZ) peptide: Ac-C(BODIPYFLEthylmaleimide)RQIKIWFQNRRMKWKKLKAQADIYKADFQAERHAREKLVEKKEYLQEQLEQLQREFNKL-NH2", "values": [
      {"measurement": "binding result", "setting": "[4]", "value": "binds"},
      {"measurement": "IC50 of inhibition of LPS-induced NF-κB activation (β-galactosidase reporter, 70Z3-C3 cells)", "setting": "[5]", "value": 3, "unit": "µM"},
      {"measurement": "fold reduction of LPS-induced NF-κB activation at 10 µM (stringent β-galactosidase assay)", "setting": "[5]", "value": 5.8, "unit": "fold"}
    ]},
    {"molecule": "Ac-C(BODIPYFLEthylmaleimide)YGRKKRRQRRRLKAQADIYKARFQAERHAREK-NH2 (SMILES CC[C@H](C)[C@H](NC(=O)[C@H](CC(=O)O)NC(=O)[C@H](C)NC(=O)[C@H](CCC(N)=O)NC(=O)[C@H](C)NC(=O)[C@H](CCCCN)NC(=O)[C@H](CC(C)C)NC(=O)[C@H](CCCNC(=N)N)NC(=O)[C@H](CCCNC(=N)N)NC(=O)[C@H](CCCNC(=N)N)NC(=O)[C@H](CCC(N)=O)NC(=O)[C@H](CCCNC(=N)N)NC(=O)[C@H](CCCNC(=N)N)NC(=O)[C@H](CCCCN)NC(=O)[C@H](CCCCN)NC(=O)[C@H](CCCNC(=N)N)NC(=O)CNC(=O)[C@H](Cc1ccc(O)cc1)NC(=O)[C@H](CSC1CC(=O)N(CCNC(=O)CCC2=[N+]3C(=Cc4c(C)cc(C)n4[B-]3(F)F)C=C2)C1=O)NC(C)=O)C(=O)N[C@@H](Cc1ccc(O)cc1)C(=O)N[C@@H](CCCCN)C(=O)N[C@@H](C)C(=O)N[C@@H](CCCNC(=N)N)C(=O)N[C@@H](Cc1ccccc1)C(=O)N[C@@H](CCC(N)=O)C(=O)N[C@@H](C)C(=O)N[C@@H](CCC(=O)O)C(=O)N[C@@H](CCCNC(=N)N)C(=O)N[C@@H](Cc1c[nH]cn1)C(=O)N[C@@H](C)C(=O)N[C@@H](CCCNC(=N)N)C(=O)N[C@@H](CCC(=O)O)C(=O)N[C@@H](CCCCN)C(N)=O)", "note": "[BODIPY-TAT-NLM-DR]", "values": [
      {"measurement": "IC 50 (inhibition of NF-κB activation pathway)", "setting": "[2]", "value": 1, "unit": "µM"}
    ]},
    {"molecule": "Ac-C(BODIPYFLEthylmaleimide)RQIKIWFQNRRMKWKKLKAQADIYKARFQAERHAREK-NH2 (SMILES CC[C@H](C)[C@H](NC(=O)[C@H](CC(=O)O)NC(=O)[C@H](C)NC(=O)[C@H](CCC(N)=O)NC(=O)[C@H](C)NC(=O)[C@H](CCCCN)NC(=O)[C@H](CC(C)C)NC(=O)[C@H](CCCCN)NC(=O)[C@H](CCCCN)NC(=O)[C@H](Cc1c[nH]c2ccccc12)NC(=O)[C@H](CCCCN)NC(=O)[C@H](CCSC)NC(=O)[C@H](CCCNC(=N)N)NC(=O)[C@H](CCCNC(=N)N)NC(=O)[C@H](CC(N)=O)NC(=O)[C@H](CCC(N)=O)NC(=O)[C@H](Cc1ccccc1)NC(=O)[C@H](Cc1c[nH]c2ccccc12)NC(=O)[C@@H](NC(=O)[C@H](CCCCN)NC(=O)[C@@H](NC(=O)[C@H](CCC(N)=O)NC(=O)[C@H](CCCNC(=N)N)NC(=O)[C@H](CSC1CC(=O)N(CCNC(=O)CCC2=[N+]3C(=Cc4c(C)cc(C)n4[B-]3(F)F)C=C2)C1=O)NC(C)=O)[C@@H](C)CC)[C@@H](C)CC)C(=O)N[C@@H](Cc1ccc(O)cc1)C(=O)N[C@@H](CCCCN)C(=O)N[C@@H](C)C(=O)N[C@@H](CCCNC(=N)N)C(=O)N[C@@H](Cc1ccccc1)C(=O)N[C@@H](CCC(N)=O)C(=O)N[C@@H](C)C(=O)N[C@@H](CCC(=O)O)C(=O)N[C@@H](CCCNC(=N)N)C(=O)N[C@@H](Cc1c[nH]cn1)C(=O)N[C@@H](C)C(=O)N[C@@H](CCCNC(=N)N)C(=O)N[C@@H](CCC(=O)O)C(=O)N[C@@H](CCCCN)C(N)=O)", "note": "[BODIPY-Ant-NLM-DR]", "values": [
      {"measurement": "IC 50 (inhibition of NF-κB activation pathway)", "setting": "[2]", "value": 1.1, "unit": "µM"}
    ]}
  ]
}
